Measurements taken from patent US20170089928A1 (SYSMEX, published 2017).

Tests used:
[1] = target: T1, Heat-denatured ovoalbumin (OA) (UniProt P01012 2-386); assay: turbidity (OD550), Hill plot analysis
T1 construct: 1.0 w/v % OA, pH adjusted to 5 to 7 with sodium hydroxide, autoclaved at 115 C for 15 min; also called Heat-denatured OA; denatured OA
T1 sequence (looked up): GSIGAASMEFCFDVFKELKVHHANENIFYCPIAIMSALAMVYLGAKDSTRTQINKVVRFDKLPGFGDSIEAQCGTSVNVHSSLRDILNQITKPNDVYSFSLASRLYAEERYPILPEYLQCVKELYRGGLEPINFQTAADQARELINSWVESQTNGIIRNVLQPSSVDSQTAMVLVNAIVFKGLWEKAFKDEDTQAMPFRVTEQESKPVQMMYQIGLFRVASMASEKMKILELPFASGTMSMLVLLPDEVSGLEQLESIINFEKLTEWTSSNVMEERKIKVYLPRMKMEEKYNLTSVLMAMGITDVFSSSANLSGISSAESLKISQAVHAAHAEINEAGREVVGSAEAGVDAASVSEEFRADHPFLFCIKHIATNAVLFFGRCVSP
Description: (§1) In the preparation, the sample was mixed so as to obtain a final concentration of the partial ACTH peptide in the mixed solution of 0 to 80 μM.
(§2) The thus-prepared mixed solutions were measured for absorbance at the wavelength of 550 nm (OD550) with a spectrophotometer UV-2500PC (Shimadzu Corporation).

[2] = target: T2, Heat-denatured BSA (bovine serum albumin autoclaved for 15 minutes) (bovine, UniProt P02769 25-607); assay: turbidity (OD550) against peptide concentration, Hill plot analysis
T2 construct: also called heat-denatured BSA solution; reagent for detection
T2 sequence (P02769 25-607 limits assumed): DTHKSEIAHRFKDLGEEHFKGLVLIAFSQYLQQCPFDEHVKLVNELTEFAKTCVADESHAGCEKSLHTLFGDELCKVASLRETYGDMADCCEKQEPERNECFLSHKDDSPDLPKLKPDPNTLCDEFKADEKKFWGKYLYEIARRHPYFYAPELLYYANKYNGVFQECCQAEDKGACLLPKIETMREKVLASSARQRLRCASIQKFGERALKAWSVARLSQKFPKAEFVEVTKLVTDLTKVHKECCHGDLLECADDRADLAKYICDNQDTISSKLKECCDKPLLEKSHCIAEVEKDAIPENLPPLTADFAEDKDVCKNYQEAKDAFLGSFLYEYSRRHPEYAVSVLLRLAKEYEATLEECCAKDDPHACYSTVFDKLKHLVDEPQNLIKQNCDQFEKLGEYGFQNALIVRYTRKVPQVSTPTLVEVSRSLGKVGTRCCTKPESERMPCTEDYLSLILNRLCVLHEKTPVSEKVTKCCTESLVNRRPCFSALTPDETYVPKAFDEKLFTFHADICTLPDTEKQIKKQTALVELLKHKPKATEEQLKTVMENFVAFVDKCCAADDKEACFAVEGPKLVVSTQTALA
Description: (§3) In this preparation, the sample was mixed so as to obtain a final concentration of the partial ACTH peptide in the mixed solution of 0 to 150 μM.
(§4) The thus-prepared mixed solutions were measured for absorbance at the wavelength of 550 nm (OD550) in a spectrophotometer UV-2500PC (Shimadzu Corporation).

Non-denatured BSA [3] = target: T3, Non-denatured BSA (bovine, UniProt P02769 25-607); assay: as above
T3 construct: BSA solution that was not heated; also called non-denatured BSA solution; BSA heat-denatured for 0 min
T3 sequence (P02769 25-607 limits assumed): as above
Description: as §3, §4

Non-denatured BSA [4] = target: T3, Non-denatured BSA; assay: turbidity (OD550), Hill plot analysis; heat denaturation period 0 min
Description: (§5) The Kd value and Hill coefficient of BSA at respective heat denaturation periods were calculated.

[5] = target: T4, BSA heat-denatured for 5 minutes (bovine, UniProt P02769 25-607); assay: turbidity (OD550), Hill plot analysis; heat denaturation period 5 min
T4 construct: Autoclaved at 110 C for 5 min; also called heat denaturation period 5 min
T4 sequence (P02769 25-607 limits assumed): as above
Description: as §5

[6] = target: T2, Heat-denatured BSA (bovine serum …); assay: turbidity (OD550), Hill plot analysis; control solution without serum
Description: (§6) In the preparation, the serum-based sample was mixed so as to adjust a final concentration of the partial ACTH peptide of to 0 to 80 μM and adjust a final concentration of serum of to an equivalent to 100-fold dilution in the mixed solution. For a control, a mixed solution was also prepared without serum (hereinafter referred to as “control solution”).
as §2

[7] = target: T2, Heat-denatured BSA (bovine serum …); assay: turbidity (OD550), Hill plot analysis; heat denaturation period 15 min
Description: as §5

[8] = target: T5, BSA heat-denatured for 60 minutes (bovine, UniProt P02769 25-607); assay: turbidity (OD550), Hill plot analysis; heat denaturation period 60 min
T5 construct: Autoclaved at 110 C for 60 min; also called heat denaturation period 60 min
T5 sequence (P02769 25-607 limits assumed): as above
Description: as §5

[9] = target: T2, Heat-denatured BSA (bovine serum …); assay: turbidity (OD550), Hill plot analysis; table row for nucleic acid 'No'
Description: (§7) A comparative mixed solution was prepared by adding to the mixed solution a salmon sperm DNA (trade name: Sonicated Salmon Sperm DNA, BioDynamics Laboratory Inc.) as nucleic acid (final concentration of nucleic acid: 10 μM).
(§8) The Kd value and Hill coefficient were calculated for the mixed solutions.

[10] = target: T6, BSA heat-denatured for 120 minutes (bovine, UniProt P02769 25-607); assay: turbidity (OD550), Hill plot analysis; heat denaturation period 120 min
T6 construct: Autoclaved at 110 C for 120 min; also called heat denaturation period 120 min
T6 sequence (P02769 25-607 limits assumed): as above
Description: as §5

[11] = target: T2, Heat-denatured BSA (bovine serum …); assay: turbidity (OD550), Hill fit with competitive inhibition term; serum at 100-fold dilution
Description: as §6, §2

[12] = target: T4, BSA heat-denatured for 5 minutes; assay: turbidity (OD550), BSA heat-denatured for 5 min mixed with rising concentration of the partial ACTH peptide
Description: as §5

[13] = target: T2, Heat-denatured BSA (bovine serum …); assay: turbidity (OD550), BSA heat-denatured for 15 min mixed with rising concentration of the partial ACTH peptide
Description: as §5

[14] = target: T5, BSA heat-denatured for 60 minutes; assay: turbidity (OD550), BSA heat-denatured for 60 min mixed with rising concentration of the partial ACTH peptide
Description: as §5

[15] = target: T6, BSA heat-denatured for 120 minutes; assay: turbidity (OD550), BSA heat-denatured for 120 min mixed with rising concentration of the partial ACTH peptide
Description: as §5

[16] = target: T7, Heat-denatured human serum albumin (HSA) (human, UniProt P02768 25-609); assay: turbidity (OD550), heat-denatured HSA (0.2 w/v %) mixed with rising concentration of the partial ACTH peptide
T7 construct: 1.0 w/v % HSA in ultrapure water, autoclaved at 115 C for 15 min; also called Heat-denatured HSA; denatured HSA
Description: as §1, §2

[17] = target: T2, Heat-denatured BSA (bovine serum …); assay: turbidity (OD550), Hill plot analysis; table row for nucleic acid 'Yes' (salmon sperm DNA, 10 µM); with nucleic acid (Yes)
Description: as §7, §8

[18] = target: T2, Heat-denatured BSA (bovine serum …); assay: turbidity (OD550), heat-denatured BSA mixed with rising peptide concentration; fitted curve of FIG. 1 superimposed
[19] = target: T2, Heat-denatured BSA (bovine serum …); assay: turbidity (OD550) of mixtures of heat-denatured BSA (0.2 w/v %) with rising concentration of the partial ACTH peptide
Description: as §3, §4

[20] = target: T2, Heat-denatured BSA (bovine serum …); assay: turbidity (OD550), heat-denatured BSA mixed with rising concentration of the partial ACTH peptide, without nucleic acid
Description: as §7, §8

[21] = target: T2, Heat-denatured BSA (bovine serum …); assay: turbidity (OD550), heat-denatured BSA mixed with rising concentration of the partial ACTH peptide, with salmon sperm DNA (10 µM)
Description: as §7, §8

[22] = target: T2, Heat-denatured BSA (bovine serum …); assay: turbidity (OD550), Hill plot analysis
Description: (§9) The Kd value and Hill coefficient were calculated for the respective samples.

[23] = target: T2, Heat-denatured BSA (bovine serum …); assay: turbidity (OD550), heat-denatured BSA mixed with rising concentration of the kininogen fragment
Description: In the preparation, the sample was mixed so as to obtain a final concentration of the respective peptides in the mixed solutions of 0 to 80 μM.
as §9

[24] = target: T2, Heat-denatured BSA (bovine serum …); assay: turbidity (OD550), heat-denatured BSA mixed with rising concentration of α-endorphin
Description: In the preparation, the sample was mixed so as to obtain a final concentration of the respective peptides in the mixed solutions of 0 to 150 μM.

[25] = target: T2, Heat-denatured BSA (bovine serum …); assay: turbidity (OD550), heat-denatured BSA mixed with rising concentration of the Fibrinogen α peptide
[26] = target: T2, Heat-denatured BSA (bovine serum …); assay: turbidity (OD550), heat-denatured BSA mixed with rising concentration of C3f
[27] = target: T2, Heat-denatured BSA (bovine serum …); assay: turbidity (OD550), heat-denatured BSA mixed with rising concentration of the Factor XIII peptide

With SYSMEHFRWGKPVGKKRRPVKVYP (also called basic peptide of interest) [partial ACTH peptide consisting of the amino acids of positions 1 to 24 of ACTH] the Kd [1] was 67 µM, the Kd [2] was 30 µM and the Kd (Non-denatured BSA [3]) was 290 µM. It also gave a Kd (Non-denatured BSA [4]) of 290 µM, a Kd [5] of 33 µM and a Kd [6] of 25 µM. For the same binder, the Kd [7] was 30 µM, the Kd [8] was 28 µM and the Kd [9] was 40 µM. For the same binder, the Kd [10] was 33 µM, the Kd [11] was 29 µM and the “EC50 (read off the curve)” value [12] was ~30 µM. For the same binder, the “EC50 (read off the curve)” value [13] was ~30 µM, the “EC50 (read off the curve)” value [14] was ~30 µM and the “EC50 (read off the curve)” value [15] was ~30 µM. The “EC50 (read off the curve)” value [16] was 40 to 50 µM, the Kd [17] was 30 µM and the “EC50 (read off the curve)” value [18] was 20 to 30 µM. The “EC50 (read off the curve)” value [19] was ~30 µM, the “EC50 (read off the curve)” value [20] was ~30 µM and the “EC50 (read off the curve)” value [21] was ~40 µM.

B1: fragment of kininogen (positions 439 to 457) (peptide)
peptide: HNLGHGHKHERDQGHGHQR
notes: also called Kininogen (439-457); kininogen fragment
For B1, the Kd [22] was 45 µM and the “EC50 (read off the curve)” value [23] was ~40 µM.

B2: α-endorphin (peptide)
peptide: YGGFMTSEKSQTPLVT
notes: Neutral comparative peptide, Peptide Institute, Inc; also called neutral peptide, α-endorphin
B2: no binding (tested: 150 µM) [24].

DEAGSEADHEGTHSTKRGHAKSRPV [Fibrinogen α (neutral peptide)]: no binding (tested: 80 µM) [25].

HWESASLL (Acidic peptide from Biologica Co) [C3f (acidic peptide)]: no binding (tested: 80 µM) [26].

AVPPNNSNAAEDDLPTVELQGVVPR [Factor XIII (acidic peptide)]: no binding (tested: 80 µM) [27].

B3: fragment of ITIH4 (positions 611 to 642) (peptide)
peptide: GESRNRNVHSGSTFFKYYLQGAKIPKPEASFS
notes: also called ITIH4 (611-642); ITIH4 fragment
With B3 the Kd [22] was 70 µM.
